In patent US8734803 (IBIO, dated 2014):

What was measured:
Test in all cases: cell-based or functional assay
[1] = molecular target: NA (neuraminidase) used in the NA activity inhibition experiments of Example 9
[2] = molecular target: T1, neuraminidase of influenza A/Vietnam/1203/04 (H5N1, clade 1) on live virus (influenza A/Vietnam/1203/04 (H5N1), UniProt Q6DPL2 1-449)
[3] = molecular target: T1, neuraminidase of influenza …; remark: listed apart in the source

T1 sequence (Q6DPL2 whole entry): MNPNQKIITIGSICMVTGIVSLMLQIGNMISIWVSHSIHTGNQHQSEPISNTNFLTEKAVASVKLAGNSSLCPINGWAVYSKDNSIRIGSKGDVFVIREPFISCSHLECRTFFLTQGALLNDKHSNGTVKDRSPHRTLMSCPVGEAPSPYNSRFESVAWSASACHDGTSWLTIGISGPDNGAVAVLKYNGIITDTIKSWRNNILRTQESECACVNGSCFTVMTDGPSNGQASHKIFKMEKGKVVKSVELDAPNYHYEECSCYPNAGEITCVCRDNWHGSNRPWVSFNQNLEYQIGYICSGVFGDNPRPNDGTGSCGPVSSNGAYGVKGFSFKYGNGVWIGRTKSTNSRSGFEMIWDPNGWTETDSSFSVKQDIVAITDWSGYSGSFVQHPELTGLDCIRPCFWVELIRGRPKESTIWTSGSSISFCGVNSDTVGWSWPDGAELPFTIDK

B1: 2B9 anti-N1 neuraminidase monoclonal antibody (antibody, V domains shown)
VH: QVQLQQSGAELVRPGTSVKMSCKAAGYTFTNYWIGWVKQRPGHGLEWIGDIYPENDFSNYNEKFKDKATLTADTSSRTAYMQLSSLTSEDSAIYYCVRANEGWYLDVWGTGTTVSVSS
VL: DIQMTQSPASLSESVGETVTITCRASENIYSYLAWYQQKQGKSPQLLVYFAKTLAEGVPSTFSGSGSGTLFSLKINSLQPEDFGNYYCQHHYGTPYTFGGGTKLEIKR
- IC50, inhibition of NA activity [1]: 0.82 µg/mL
- NA assay IC50 (Antibody IC50) [2]: < 1 µg/mL
- IC50 of 2B9 against various influenza strains (NA inhibition) [3]: ≤ 1 µg/mL
